For two molecules, inhibition of GST-Jun (aa 1-73) phosphorylation by recombinant JNK; fold less efficient than L-TAT-IB1(s) and inhibition of c-Jun, ATF2 and Elk1 phosphorylation by JNKs (solid phase kinase assay, 33P, SDS-PAGE) results are on record in US20110183888A1.

Some targets named below: JNK2, P45984; JNK1, P45983; JNK3, P53779.
Common to all, as to test: cell-based or functional assay

Square brackets hold non-standard residues; d marks the D form. Ends that are not written are not given here.

Chain of JNK3, P53779 (P53779 whole entry): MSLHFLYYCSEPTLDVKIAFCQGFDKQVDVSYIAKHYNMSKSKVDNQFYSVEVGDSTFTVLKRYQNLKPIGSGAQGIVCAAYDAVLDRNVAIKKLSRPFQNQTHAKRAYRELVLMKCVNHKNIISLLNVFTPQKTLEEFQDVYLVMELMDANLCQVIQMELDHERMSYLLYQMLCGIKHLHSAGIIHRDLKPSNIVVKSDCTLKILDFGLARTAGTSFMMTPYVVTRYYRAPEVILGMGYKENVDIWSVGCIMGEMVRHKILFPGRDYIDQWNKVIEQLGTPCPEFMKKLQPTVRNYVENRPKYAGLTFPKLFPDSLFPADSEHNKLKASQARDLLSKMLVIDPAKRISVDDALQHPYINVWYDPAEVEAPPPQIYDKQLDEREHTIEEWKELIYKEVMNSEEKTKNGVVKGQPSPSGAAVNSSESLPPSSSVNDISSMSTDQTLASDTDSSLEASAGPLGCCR
Chain of JNK1, P45983 (P45983 whole entry): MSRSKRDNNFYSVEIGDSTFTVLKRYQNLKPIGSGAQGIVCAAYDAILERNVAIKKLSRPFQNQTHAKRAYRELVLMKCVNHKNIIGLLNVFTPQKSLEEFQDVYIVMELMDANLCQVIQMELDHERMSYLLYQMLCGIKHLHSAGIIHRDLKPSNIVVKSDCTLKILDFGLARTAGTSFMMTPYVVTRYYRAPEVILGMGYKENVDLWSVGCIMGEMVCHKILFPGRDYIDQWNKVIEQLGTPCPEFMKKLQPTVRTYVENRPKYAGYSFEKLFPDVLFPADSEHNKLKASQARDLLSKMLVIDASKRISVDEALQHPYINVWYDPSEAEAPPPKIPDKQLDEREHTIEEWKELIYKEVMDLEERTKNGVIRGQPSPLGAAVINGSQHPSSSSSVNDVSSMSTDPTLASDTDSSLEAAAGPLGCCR

With [dD][dQ][dS][dR][dP][dV][dQ][dP][dF][dL][dN][dL][dT][dT][dP][dR][dK][dP][dR][dP][dP][dR][dR][dR][dQ][dR][dR][dK][dK][dR]G [D-TAT-IB1(s)], the inhibition of GST-Jun (aa 1-73) phosphorylation by recombinant JNK; fold less efficient than L-TAT-IB1(s) fell in the range of 10 to 20 fold with JNK2, P45984; 10 to 20 fold in the assay with JNK1, P45983; 10 to 20 fold in the assay with JNK3, P53779.
For the molecule GRKKRRQRRRPPRPKRPTTLNLFPQVPRSQD [L-TAT-IB1(s)], the inhibition of c-Jun, ATF2 and Elk1 phosphorylation by JNKs (solid phase kinase assay, 33P, SDS-PAGE) with JNK2, P45984 stood at 2.5 µM; with JNK1, P45983, 2.5 µM; in the assay with JNK3, P53779, 2.5 µM.
